We go through two variants from IntAct's records for PubMed 17187064.

B1: A-type potassium channel modulatory protein KCNIP1 (Homo sapiens), Q9NZI2 (parent)
chain: MGAVMGTFSSLQTKQRRPSKDIAWWYYQYQRDKIEDELEMTMVCHRPEGLEQLEAQTNFTKRELQVLYRGFKNECPSGVVNEDTFKQIYAQFFPHGDASTYAHYLFNAFDTTQTGSVKFEDFVTALSILLRGTVHEKLRWTFNLYDINKDGYINKEEMMDIVKAIYDMMGKYTYPVLKEDTPRQHVDVFFQKMDKNKDGIVTLDEFLESCQEDDNIMRSLQLFQNVM
partner: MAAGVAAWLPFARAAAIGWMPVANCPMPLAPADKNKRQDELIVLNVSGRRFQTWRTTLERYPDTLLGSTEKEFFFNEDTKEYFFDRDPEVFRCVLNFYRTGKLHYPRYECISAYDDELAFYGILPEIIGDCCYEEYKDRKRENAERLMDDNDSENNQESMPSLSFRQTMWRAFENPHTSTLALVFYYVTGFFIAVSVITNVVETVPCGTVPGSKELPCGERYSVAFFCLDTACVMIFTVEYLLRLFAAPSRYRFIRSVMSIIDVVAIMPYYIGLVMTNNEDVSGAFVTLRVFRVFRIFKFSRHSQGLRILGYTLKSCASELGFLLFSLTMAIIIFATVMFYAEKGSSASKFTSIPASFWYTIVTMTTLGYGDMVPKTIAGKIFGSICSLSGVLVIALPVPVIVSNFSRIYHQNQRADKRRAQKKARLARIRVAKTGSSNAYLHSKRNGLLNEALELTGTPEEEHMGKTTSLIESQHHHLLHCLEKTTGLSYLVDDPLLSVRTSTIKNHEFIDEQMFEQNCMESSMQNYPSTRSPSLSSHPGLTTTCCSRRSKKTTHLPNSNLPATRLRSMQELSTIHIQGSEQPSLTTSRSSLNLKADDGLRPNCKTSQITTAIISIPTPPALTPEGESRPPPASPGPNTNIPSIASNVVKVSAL
B2: A-type voltage-gated potassium channel KCND3 (Homo sapiens), Q9UK17 (parent)
chain: B1 partner
partner: B1 chain

In the first assay the parent is B1. Conditions: with kcnd3_human KCND3, Q9UK17.
As to MGAVMGTFSSLQTKQRRPSKDIAWWYYQYQRDKIEDELEMTMVCHRPEGLEQLEAQTNFTKRELQVLYRGFKNECPSGVVNEDTFKQIYAQFFPHGDASTYAHYLFNAFDTTQTGSVKFEDFVTALSILLRGTEHEKLRWTFNLYDINKDGYINKEEMMDIVKAIYDMMGKYTYPVLKEDTPRQHVDVFFQKMDKNKDGIVTLDEFLESCQEDDNIMRSLQLFQNVM [V134E], the “effect of a mutation on the interaction” value is given as “disrupting interaction”.

In the next assay the parent is B2. Particulars: with kcip1_human KCNIP1, Q9NZI2.
In the case of W8E;P10E;A15E, the “effect of a mutation on the interaction” value was “disrupting interaction”.
